Where a chain is given by its changes, count along the chain named. Names and notes keep the numbering of the source. Read-outs that look alike come from different tables or passages of the source.
Tests used:
crystal structure = biological target: the molecule itself; experiment: crystal structure
RNase T [1] = biological target: T1, RNase T (Escherichia coli, UniProt P30014 1-215); experiment: X-ray crystallography
T1 sequence: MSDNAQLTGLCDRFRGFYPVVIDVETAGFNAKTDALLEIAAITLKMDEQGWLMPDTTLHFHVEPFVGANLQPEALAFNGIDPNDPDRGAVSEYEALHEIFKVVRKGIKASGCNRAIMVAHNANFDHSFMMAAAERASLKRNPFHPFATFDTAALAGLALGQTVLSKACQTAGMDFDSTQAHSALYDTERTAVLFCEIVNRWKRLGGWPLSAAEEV

RNase T E92G [2] = biological target: T2, RNase T E92G (Escherichia coli, UniProt P30014 1-215, E92G); experiment: X-ray crystallography
T2 sequence: T1 sequence with E92G

RNase T E92G [3] = biological target: T2, RNase T E92G; experiment: X-ray crystallography; remark: listed apart in the source
RNase T [4] = biological target: T1, RNase T; experiment: X-ray crystallography; remark: listed apart in the source

B1: RNase T E92G mutant (E. coli) (enzyme, UniProt P30014 1-215, looked up)
chain: T1 sequence with E92G
- binding result (crystal structure): binds

B2: RNase T (wild-type, E. coli) (enzyme, UniProt P30014 1-215, looked up)
chain: T1 sequence
- binding result (crystal structure): binds

Binder: TTACACC (ssDNA) [ssDNA 3'-end ACC]
- binding result (RNase T [1]): binds

Binder: GGCCCTCTTTAGGGCCTT (structured_DNA) [stem-loop DNA, 2-nt 3'-overhang]
- binding result (RNase T E92G [2]): binds

Binder: GCTTA (ssDNA) [ssDNA 3'-end TTA]
- binding result (RNase T E92G [3]): binds

Binder: TTACAAC (ssDNA) [ssDNA 3'-end AAC]
- binding result (RNase T [1]): binds

Binder: TTACAAT (ssDNA) [ssDNA 3'-end AAT]
- binding result (RNase T E92G [3]): binds

Binder: TTATAAA (ssDNA) [ssDNA 3'-end AAA]
- binding result (RNase T [4]): binds

— publication PMC3439924 (Nucleic Acids Research, 2012)
